Values quoted from earlier work as cited in patent US8420067B2, “Targeted polylysine dendrimer therapeutic agent” (Starpharma Pty Ltd, priority 2006, dated 2013).
Where two headings read alike, the source gives them in different places.

Substance | stability of the conjugate in acidic conditions (pH 4) | stability of the conjugate in acidic conditions (pH 5) | stability of the conjugate in acidic conditions (acidic conditions (pH 4-6))
α-methoxy-ω-{N-(2-octadecyloxy-[1,3]dioxolan-4-yl)methylamido}-polyethyleneglycol110 | good stability | good stability | 
α-methoxy-ω-{N-(2-methyl-s-octadecyloxy-[1,3]dioxan-5-yl)-amido}-polyethyleneglycol110 |  |  | not stable
α-methoxy-ω-{N-(2-cholesteryloxy-[1,3]dioxolan-4-yl)methylamido}-polyethyleneglycol110 | moderately less stable | very stable | 
α-methoxy-ω-{N-2-(3-hydroxypropyl-cholesterylcarbamate)-2-methyl-[1,3]dioxan-5-yl-amido}-polyethyleneglycol110 |  |  | not stable
